One series concerns the target T1, UGT1A9 (Homo sapiens, UniProt O60656).
T1 sequence (O60656 26-530): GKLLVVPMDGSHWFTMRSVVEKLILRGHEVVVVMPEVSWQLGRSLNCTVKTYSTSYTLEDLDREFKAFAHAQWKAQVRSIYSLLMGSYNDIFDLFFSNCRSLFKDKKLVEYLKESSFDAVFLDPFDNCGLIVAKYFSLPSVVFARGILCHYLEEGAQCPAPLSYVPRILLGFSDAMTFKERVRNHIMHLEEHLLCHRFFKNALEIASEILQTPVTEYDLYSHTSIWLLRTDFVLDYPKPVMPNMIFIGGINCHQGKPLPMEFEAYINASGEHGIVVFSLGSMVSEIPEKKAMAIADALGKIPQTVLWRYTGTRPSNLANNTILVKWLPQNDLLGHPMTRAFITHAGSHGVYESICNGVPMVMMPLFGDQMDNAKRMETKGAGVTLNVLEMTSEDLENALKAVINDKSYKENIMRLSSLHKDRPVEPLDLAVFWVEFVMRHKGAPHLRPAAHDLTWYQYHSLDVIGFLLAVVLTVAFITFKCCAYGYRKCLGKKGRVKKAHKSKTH
The settings on record: cited from earlier work; for Km: affinity of UGT1A9 for tRes and natural analogs.

The target of the next series is T2, UGT1A1 (Homo sapiens, UniProt P22309).
T2 sequence (P22309 26-533): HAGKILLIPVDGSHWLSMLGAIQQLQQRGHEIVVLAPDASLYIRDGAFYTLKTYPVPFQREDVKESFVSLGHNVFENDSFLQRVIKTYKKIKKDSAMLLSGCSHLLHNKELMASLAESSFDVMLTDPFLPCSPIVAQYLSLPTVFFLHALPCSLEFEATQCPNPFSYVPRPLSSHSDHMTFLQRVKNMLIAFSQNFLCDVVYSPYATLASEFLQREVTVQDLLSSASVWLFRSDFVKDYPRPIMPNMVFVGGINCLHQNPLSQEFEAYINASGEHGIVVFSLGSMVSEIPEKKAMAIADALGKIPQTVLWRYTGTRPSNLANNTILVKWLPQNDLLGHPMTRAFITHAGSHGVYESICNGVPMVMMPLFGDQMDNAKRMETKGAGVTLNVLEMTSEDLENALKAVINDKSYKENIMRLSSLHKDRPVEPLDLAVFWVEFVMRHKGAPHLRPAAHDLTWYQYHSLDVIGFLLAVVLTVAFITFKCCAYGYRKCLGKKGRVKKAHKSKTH
The following applies: tRes-3-O-glucuronidation; cited from earlier work.

Substrate in series [1]: COc1ccc(/C=C(/C(=O)O)c2cc(OC)c(OC)c(OC)c2)cc1O
Put plainly: Steady state kinetics of glucuronidation by recombinant UGT1A10. It counts as in vitro ADME, human. The settings on record: other: NI-12a-O-gluc formation; UDP-GlcUA 3 mM, 60 min, 37 °C.

Substrate in series [2]: COc1ccc(C=Cc2cc(OC)cc(OC)c2/C=N/O)cc1
Described as above. The following applies: other: NI-ST-05–N–O-gluc formation; Hill equation (S50). It counts as in vitro ADME, human.

Substrate in series [3]: COc1ccc(/C=C(/C(=O)O)c2cc(OC)c(OC)c(OC)c2)cc1O
Put plainly: Steady state kinetics of glucuronidation by recombinant UGT1A8. The class given is in vitro ADME, human. The settings on record: other: NI-12a-O-gluc formation, UDP-GlcUA 3 mM, 60 min, 37 °C.

Substrate in series [4]: COc1ccc(C=Cc2cc(OC)cc(OC)c2/C=N/O)cc1
In words: Steady state kinetics of glucuronidation by recombinant UGT1A1. It counts as in vitro ADME, human. The settings on record: other: NI-ST-05–N–O-gluc formation; estimated based on an incomplete data set.

Substrate in series [5]: COc1ccc(/C=C(/C(=O)O)c2cc(OC)c(OC)c(OC)c2)cc1O
Put plainly: Steady state kinetics of glucuronidation by recombinant UGT1A7. The class given is in vitro ADME, human. The settings on record: other: NI-12a-O-gluc formation, UDP-GlcUA 3 mM, 60 min, 37 °C.

Substrate in series [6]: COc1ccc(/C=C(/C(=O)O)c2cc(OC)c(OC)c(OC)c2)cc1O
In words: Steady state kinetics of glucuronidation by recombinant UGT1A9. The class given is in vitro ADME, human. The settings on record: other: NI-12a-O-gluc formation, UDP-GlcUA 3 mM, 60 min, 37 °C.

Here are results for eight molecules from publication PMC4002122 (Chemical Research in Toxicology, 2014).

For `CC(C)/C=C/c1c(O)cc(/C=C/c2ccc(O)cc2)cc1O` [tA3], the Km at UGT1A9 was 21 µM.

Regarding `Oc1ccc(/C=C/c2cc(O)cc(O)c2)cc1` [tRes, trans-3,5,4′-trihydroxystilbene], the Vmax at UGT1A1 is 31 nmol/mg/min; on UGT1A9 (tRes-3-O-glucuronide formation) it was 2.5 nmol/mg/min. The Km at UGT1A9 is 2.5 µM.

With trans-arachidin-1 [tA1], the Michaelis-Menten constant (Km) on UGT1A9 is 190 µM.

B1: UGT1A10 (Homo sapiens) (protein)
chain: GKLLVVPMDGSHWFTMQSVVEKLILRGHEVVVVMPEVSWQLERSLNCTVKTYSTSYTLEDQNREFMVFAHAQWKAQAQSIFSLLMSSSSGFLDLFFSHCRSLFNDRKLVEYLKESSFDAVFLDPFDTCGLIVAKYFSLPSVVFTRGIFCHHLEEGAQCPAPLSYVPNDLLGFSDAMTFKERVWNHIVHLEDHLFCQYLFRNALEIASEILQTPVTAYDLYSHTSIWLLRTDFVLDYPKPVMPNMIFIGGINCHQGKPLPMEFEAYINASGEHGIVVFSLGSMVSEIPEKKAMAIADALGKIPQTVLWRYTGTRPSNLANNTILVKWLPQNDLLGHPMTRAFITHAGSHGVYESICNGVPMVMMPLFGDQMDNAKRMETKGAGVTLNVLEMTSEDLENALKAVINDKSYKENIMRLSSLHKDRPVEPLDLAVFWVEFVMRHKGAPHLRPAAHDLTWYQYHSLDVIGFLLAVVLTVAFITFKCCAYGYRKCLGKKGRVKKAHKSKTH
Turning to B1, in series [1], the Km came out at 500 ± 75 µM, the Vmax is 3.5 ± 0.24 nmol/mg/min and the Vmax/Km stood at 7 µL/min/mg. In series [2], the K0.5 was determined as 6.2 ± 0.35 µM, the Vmax stood at 0.00065 µmol/min/mg and the Vmax/Km was determined as 105 µL/min/mg.

B2: UGT1A8 (Homo sapiens) (protein)
chain: GKLLVVPMDGSHWFTMQSVVEKLILRGHEVVVVMPEVSWQLGKSLNCTVKTYSTSYTLEDLDREFMDFADAQWKAQVRSLFSLFLSSSNGFFNLFFSHCRSLFNDRKLVEYLKESSFDAVFLDPFDACGLIVAKYFSLPSVVFARGIACHYLEEGAQCPAPLSYVPRILLGFSDAMTFKERVRNHIMHLEEHLFCQYFSKNALEIASEILQTPVTAYDLYSHTSIWLLRTDFVLDYPKPVMPNMIFIGGINCHQGKPLPMEFEAYINASGEHGIVVFSLGSMVSEIPEKKAMAIADALGKIPQTVLWRYTGTRPSNLANNTILVKWLPQNDLLGHPMTRAFITHAGSHGVYESICNGVPMVMMPLFGDQMDNAKRMETKGAGVTLNVLEMTSEDLENALKAVINDKSYKENIMRLSSLHKDRPVEPLDLAVFWVEFVMRHKGAPHLRPAAHDLTWYQYHSLDVIGFLLAVVLTVAFITFKCCAYGYRKCLGKKGRVKKAHKSKTH
In the case of B2, in series [3], the Km is 240 ± 76 µM, the Vmax is given as 6.0 ± 1.3 nmol/mg/min and the Vmax/Km was found to be 25 µL/min/mg.

B3: UGT1A1 (Homo sapiens) (protein)
chain: HAGKILLIPVDGSHWLSMLGAIQQLQQRGHEIVVLAPDASLYIRDGAFYTLKTYPVPFQREDVKESFVSLGHNVFENDSFLQRVIKTYKKIKKDSAMLLSGCSHLLHNKELMASLAESSFDVMLTDPFLPCSPIVAQYLSLPTVFFLHALPCSLEFEATQCPNPFSYVPRPLSSHSDHMTFLQRVKNMLIAFSQNFLCDVVYSPYATLASEFLQREVTVQDLLSSASVWLFRSDFVKDYPRPIMPNMVFVGGINCLHQNPLSQEFEAYINASGEHGIVVFSLGSMVSEIPEKKAMAIADALGKIPQTVLWRYTGTRPSNLANNTILVKWLPQNDLLGHPMTRAFITHAGSHGVYESICNGVPMVMMPLFGDQMDNAKRMETKGAGVTLNVLEMTSEDLENALKAVINDKSYKENIMRLSSLHKDRPVEPLDLAVFWVEFVMRHKGAPHLRPAAHDLTWYQYHSLDVIGFLLAVVLTVAFITFKCCAYGYRKCLGKKGRVKKAHKSKTH
B3: the Vmax in series [4] was 0.00021 ± 2e-05 µmol/min/mg.

B4: UGT1A7 (Homo sapiens) (protein)
chain: GKLLVVPMDGSHWFTMQSVVEKLILRGHEVVVVMPEVSWQLGRSLNCTVKTYSTSYTLEDQDREFMVFADARWTAPLRSAFSLLTSSSNGIFDLFFSNCRSLFNDRKLVEYLKESCFDAVFLDPFDACGLIVAKYFSLPSVVFARGIFCHYLEEGAQCPAPLSYVPRLLLGFSDAMTFKERVWNHIMHLEEHLFCPYFFKNVLEIASEILQTPVTAYDLYSHTSIWLLRTDFVLEYPKPVMPNMIFIGGINCHQGKPVPMEFEAYINASGEHGIVVFSLGSMVSEIPEKKAMAIADALGKIPQTVLWRYTGTRPSNLANNTILVKWLPQNDLLGHPMTRAFITHAGSHGVYESICNGVPMVMMPLFGDQMDNAKRMETKGAGVTLNVLEMTSEDLENALKAVINDKSYKENIMRLSSLHKDRPVEPLDLAVFWVEFVMRHKGAPHLRPAAHDLTWYQYHSLDVIGFLLAVVLTVAFITFKCCAYGYRKCLGKKGRVKKAHKSKTH
Turning to B4, in series [5], the Michaelis-Menten constant (Km) was 62 ± 43 µM, the Vmax is 2.2 ± 0.77 nmol/mg/min and the Vmax/Km came out at 35 µL/min/mg.

B5: UGT1A9 (Homo sapiens) (protein)
chain: GKLLVVPMDGSHWFTMRSVVEKLILRGHEVVVVMPEVSWQLGRSLNCTVKTYSTSYTLEDLDREFKAFAHAQWKAQVRSIYSLLMGSYNDIFDLFFSNCRSLFKDKKLVEYLKESSFDAVFLDPFDNCGLIVAKYFSLPSVVFARGILCHYLEEGAQCPAPLSYVPRILLGFSDAMTFKERVRNHIMHLEEHLLCHRFFKNALEIASEILQTPVTEYDLYSHTSIWLLRTDFVLDYPKPVMPNMIFIGGINCHQGKPLPMEFEAYINASGEHGIVVFSLGSMVSEIPEKKAMAIADALGKIPQTVLWRYTGTRPSNLANNTILVKWLPQNDLLGHPMTRAFITHAGSHGVYESICNGVPMVMMPLFGDQMDNAKRMETKGAGVTLNVLEMTSEDLENALKAVINDKSYKENIMRLSSLHKDRPVEPLDLAVFWVEFVMRHKGAPHLRPAAHDLTWYQYHSLDVIGFLLAVVLTVAFITFKCCAYGYRKCLGKKGRVKKAHKSKTH
For B5, in series [6], the Km was 240 ± 40 µM, the Vmax was 0.0083 µmol/min/mg and the Vmax/Km was 35 µL/min/mg.
